Values quoted from earlier work, collected in PMC11329504, “Identification of novel small molecule-based strategies of COL7A1 upregulation and readthrough activity for the treatment of recessive dystrophic epidermolysis bullosa” (Scientific Reports, 2024).

Target: Laminin 5 (Homo sapiens) (UniProt Q16787)

Collagen VII NC1 NC1, sequence (Q02388 17-1253): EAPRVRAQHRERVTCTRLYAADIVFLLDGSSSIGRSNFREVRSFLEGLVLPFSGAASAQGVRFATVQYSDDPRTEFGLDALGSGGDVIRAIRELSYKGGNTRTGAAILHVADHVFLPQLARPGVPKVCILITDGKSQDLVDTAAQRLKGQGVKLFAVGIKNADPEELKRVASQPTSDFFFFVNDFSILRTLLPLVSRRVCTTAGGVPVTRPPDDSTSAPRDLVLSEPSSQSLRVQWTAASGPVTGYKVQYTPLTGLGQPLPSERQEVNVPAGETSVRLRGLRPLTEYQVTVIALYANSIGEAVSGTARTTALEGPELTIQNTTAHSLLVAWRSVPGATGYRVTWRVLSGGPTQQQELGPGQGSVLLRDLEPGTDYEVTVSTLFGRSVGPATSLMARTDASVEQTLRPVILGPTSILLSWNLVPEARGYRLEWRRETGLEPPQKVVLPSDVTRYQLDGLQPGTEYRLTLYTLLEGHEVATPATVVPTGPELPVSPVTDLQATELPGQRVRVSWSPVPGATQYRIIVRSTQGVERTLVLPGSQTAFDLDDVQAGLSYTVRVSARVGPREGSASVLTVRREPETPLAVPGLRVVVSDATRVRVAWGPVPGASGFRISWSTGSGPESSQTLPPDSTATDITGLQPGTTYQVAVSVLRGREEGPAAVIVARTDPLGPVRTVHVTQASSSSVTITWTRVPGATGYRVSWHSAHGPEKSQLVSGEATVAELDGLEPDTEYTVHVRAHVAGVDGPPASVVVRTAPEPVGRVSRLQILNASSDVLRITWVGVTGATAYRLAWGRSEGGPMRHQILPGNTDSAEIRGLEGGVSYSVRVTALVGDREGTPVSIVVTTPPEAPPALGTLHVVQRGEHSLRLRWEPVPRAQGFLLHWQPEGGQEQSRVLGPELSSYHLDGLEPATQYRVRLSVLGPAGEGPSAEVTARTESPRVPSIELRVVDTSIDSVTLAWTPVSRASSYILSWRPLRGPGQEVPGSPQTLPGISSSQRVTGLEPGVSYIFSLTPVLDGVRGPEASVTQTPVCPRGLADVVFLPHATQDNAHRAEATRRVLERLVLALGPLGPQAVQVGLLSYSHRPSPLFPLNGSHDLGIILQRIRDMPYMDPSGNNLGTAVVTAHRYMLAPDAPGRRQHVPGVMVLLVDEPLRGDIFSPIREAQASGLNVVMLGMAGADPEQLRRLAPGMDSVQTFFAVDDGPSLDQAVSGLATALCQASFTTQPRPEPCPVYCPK

Question: For “Collagen VII NC1 NC1 (from UniProt Q02388)”, which Kd is on record?
Answer: Its Kd is 0.048 µM.
